Experimental data published in US7655453B2, “Recombinant Candida rugosa lipases” (Academia Sinica, priority 2001, dated 2010).

Substrate: CCCCC/C=C\C/C=C\CCCCCCCC(=O)O[C@H]1CC[C@@]2(C)C(=CC[C@H]3[C@@H]4CC[C@H]([C@H](C)CCCC(C)C)[C@@]4(C)CC[C@@H]32)C1
Assay: purified protein, by the assay type
Format: biochemical, Candida rugosa
Details: other: 37° C., pH 7.0, Trx-LIP4 29 nM, average of three independent experiments
From the text: Construction of expression vectors The E. coli expression vectors pET23a-LIP4-S19 and pET23a-trx-LIP4-S19 were constructed as described in Tang et al. (2000) Protein Exp. Purif. 20: 308-313. Open-reading frames of LIP1, LIP2, LIP3, and LIP5 without the leader sequence were obtained by reverse transcription-polymerase chain reaction (RT-PCR). See Longhi et al. (1992) Biochim. Biophy. […] The chimeric DNA sequences were constructed by replacing the SphI(184)-BstXI(304) restriction DNA fragment of LIP4 with the corresponding fragments of LIP1, LIP2, LIP3, or LIP5, respectively. The resulting sequences encode mature chimeric C. rugosa lipases, denoted as TrX-LIP4/lid1, TrX-LIP4/lid2, TrX-LIP4/lid3, and TrX-LIP4/lid5, and were confirmed by DNA sequencing.
Preparation of recombinant LIP4 from E. coli. E. coli strain AD494(DE3) (Novagen, Milwaukee, Wis.) harboring recombinant plasmid was grown overnight at 37° C. in Luria-Bertani (LB) broth supplemented with 50 μg/mL ampicillin and 15 μg/mL kanamycin. The cells were then diluted 20-fold into fresh medium and incubated with shaking at 25° C. After adding IPTG to give a final concentration of 0.05 mM, the cells were incubated at 10° C. until OD600 reached 1.0.
Purification of recombinant LIP4. After induction, the AD494(DE3) transformants were harvested by centrifugation at 4000 g and 4° C. for 10 min. The cell pellet was resuspended in TE buffer (20 mM Tris-HCl and 2.5 mM EDTA, pH 8.0). The cells were disrupted with a sonicator, and the soluble fractions of the cell lysates were then collected by centrifugation at 15,000 g at 4° C. for 30 min. The soluble fractions were concentrated by ultrafiltration on a 10,000 molecular weight cut-off membrane. These samples were then applied onto a DEAE-Sepharose CL-6B (Pharmacia Biotech) column equilibrated with TE buffer. Recombinant lipases were eluted using a linear gradient of 0 to 100 mM (NH4)2SO4 over 5 column volumes.
The eluted proteins were then applied to a Butyl-Sepharose 4 Fast Flow (Pharmacia Biotech) hydrophobic interaction column. The column was washed with 5 bed volumes of TE buffer plus 1 mM and then 4 mM CHAPS. Bound proteins were then eluted with 5 bed volumes of TE buffer containing 30 mM CHAPS. The eluted samples were dialyzed against TE buffer and stored in a storage buffer (60 mM KCl, 10 mM Tris-HCl, 1.25 mM EDTA, 1% Triton X-100, and 17% glycerol, pH 7.5) at −20° C. Protein concentrations in the fractions were measured with the Bio-Rad assay kit, and esterase activity was determined using p-nitrophenyl butyrate as a substrate. The molecular masses of the purified recombinant lipases and a commercial lipase (Lipase Type VII, Sigma L1754) were determined by SDS-PAGE analysis. […]

B1: Candida rugosa lipase 4 (LIP4), recombinant, E. coli thioredoxin fused to the N-terminal (Trx-LIP4) (Diutina rugosa) (protein)
chain: SMNSRGPAGRLGSVPTATLANGDTITGLNAIINEAFLGIPFAQPPVGNLRFKPPVPYSASLNGQKFTSYGPSCMQMNPLGNWDSSLPKAAINSLMQSKLFQAVLPNGEDCLTINVVRPSGTKPGANLPVMVWIFGGGFEVGGSSLFPPAQMITASVLMGKPIIHVSMNYRVASWGFLAGPDIKAEGSGNAGLHDQRLGLQWVADNIAGFGGDPSKVTIFGESAGSMSVMCQLLWNDGDNTYNGKPLFRAAIMQSGAMVPSDPVDGPYGTQIYDQVVASAGCGSASDKLACLRSISNDKLFQATSDTPGALAYPSLRLSFLPRPDGTFITDDMFKLVRDGKCANVPVIIGDQNDEGTVFALSSLNVTTDAQARQYFKESFIHASDAEIDTLMAAYPSDITQGSPFDTGIFNAITPQFKRIAAVLGDLAFTLPRRYFLNHFQGGTKYSFLSKQLSGLPVIGTHHANDIVWQDFLVSHSSAVYNNAFIAFANDLDPNKAGLLVNWPKYTSSSQSGNNLLQINALGLYTGKDNFRTAGYDALFTNPSSFFV
- Km: 104 ± 10 10^−3 mM
- Vmax: 2.9 µmol/min/mg
- kcat: 3.37 ± 0.135 s⁻¹
- kcat/Km: 32300 ± 2320 M⁻¹ s⁻¹
